This note sets out measurements from article PMC9307851.

For the assay, the target named is DNMT3B MTase domain (residues 569-853), R670Q (human) (UniProt Q9UBC3).

“DNMT3B MTase domain (residues 569-853), R670Q (from UniProt Q9UBC3-1 569-853) (domain or fragment)” registered an in vitro DNA methylation efficiency of the DNMT3B-DNMT3B complex on CpG DNA, reduction against WT of 3 fold.
